The text below walks through data of patent US20090317326A1 (published 2009).

B1: 3-CN,4-F-Benzoyl-Arg-Ava-Gln-Trp-Ala-Val-NMeGly-His-Sta-Leu-NH2 (peptide)
peptide: RXQWAVGHXL
modifications: not fully specified; N-terminal 3-cyano-4-fluoro-benzoyl group (F is 18F or 19F); Ava (5-aminovaleric acid) spacer; NMeGly (N-methylglycine); Sta (statine); C-terminal amide
notes: Synthetic bombesin analog
B2: 3-CF3,4-F-Benzoyl-Arg-Ava-Gln-Trp-Ala-Val-NMeGly-His-Sta-Leu-NH2 (peptide)
peptide: RXQWAVGHXL
modifications: not fully specified; N-terminal 3-trifluoromethyl-4-fluoro-benzoyl group (F is 18F or 19F); Ava (5-aminovaleric acid) spacer; NMeGly (N-methylglycine); Sta (statine); C-terminal amide
notes: Synthetic bombesin analog
B3: 3-CN,4-F-Benzoyl-Arg-Ava-Gln-Trp-Ala-Val-Gly-His(3Me)-Sta-Leu-NH2 (peptide)
peptide: RXQWAVGHXL
modifications: not fully specified; N-terminal 3-cyano-4-fluoro-benzoyl group (F is 18F or 19F); Ava (5-aminovaleric acid) spacer; His(3Me) (3-methylhistidine); Sta (statine); C-terminal amide
notes: Synthetic bombesin analog
B4: 4F,3CN-Bnz-Arg-Ava-Gln-Trp-Ala-Val-NMeGly-His(3Me)-Sta-Leu-NH2 (peptide)
peptide: RXQWAVGHXL
modifications: not fully specified; N-terminal 3-cyano-4-fluoro-benzoyl group (F is 18F or 19F); Ava (5-aminovaleric acid) spacer; NMeGly (N-methylglycine); His(3Me) (3-methylhistidine); Sta (statine); C-terminal amide
notes: Synthetic bombesin analog

In the experiment the target is T1, human GRP receptor (human, UniProt P30550 1-384).
T1 construct: also called Gastrin-releasing peptide (GRP) receptor; GRP receptors
T1 sequence (P30550 whole entry): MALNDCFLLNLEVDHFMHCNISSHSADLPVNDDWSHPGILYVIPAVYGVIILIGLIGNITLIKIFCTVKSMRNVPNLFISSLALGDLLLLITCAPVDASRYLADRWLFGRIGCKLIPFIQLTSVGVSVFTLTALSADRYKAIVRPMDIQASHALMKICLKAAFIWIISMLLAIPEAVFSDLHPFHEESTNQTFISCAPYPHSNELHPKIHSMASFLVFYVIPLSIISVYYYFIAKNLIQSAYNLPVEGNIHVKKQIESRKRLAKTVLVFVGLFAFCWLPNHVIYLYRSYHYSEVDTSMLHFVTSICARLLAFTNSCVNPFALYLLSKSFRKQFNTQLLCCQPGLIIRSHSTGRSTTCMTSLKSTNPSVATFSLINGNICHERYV
Briefly: binding affinity (IC50); assay format, labelled ligand and receptor source not described.
As for B1, the IC50 lay in the range of 1.9 to 2.7 nM.
The value for B2 was 0.3 to 1.8 nM.
The value for B3 was 1 nM; that for B4 was 2.3 nM.

A word on the IC50: it is the concentration that gives 50% inhibition. Read a low IC50 as greater potency in that assay.
